The source of these data is patent publication US7115556B2, “Use of anti-prolactin agents to treat proliferative conditions” (Greenville Hospital System, priority 1998, dated 2006).

For test [1], the system named is T47D human breast cancer cells. As to the kind of experiment: Cell proliferation assay, cell counting. Type of test: cell-based. The following applies: FIGS. 5A-B. How it is done: Cell proliferation assays. hPRLA was tested for its ability to inhibit breast cancer cell proliferation in tissue culture. The human breast cancer cells were grown in corresponding culture media according to ATCC recommendations. Cells were maintained at 37° C. in a humidified atmosphere of 5% CO2 in air. The assay conditions were essentially as described by Ginsburg and Vonderharr (1995, Cancer Res. 55:2591–2595). For individual growth experiments, cells were plated in 12 well culture plates at a density of approximately 2×10^4 /ml, 1 ml/ well. Cells were then allowed to attach for one day (T-47D, MCF-7, HTB19, and HTB20 cells, except for HTB 123, which is a suspension cells), then the overlying media was removed and changed to serum-free conditions with media containing ITS^+ (insulin-transferring-selenium-BSA-linoleic acid culture supplement; Collaborative Research Bedford, Mass.). Varying concentrations of hPRL alone or in combination with hPRLA were introduced. After an additional three days in culture, cells were harvested after brief trypsinization and counted in a cell counter.

For test [2], the system named is T47-D human breast cancer cells. As to the kind of experiment: 96 well cell proliferation assay with conditioned media (MTS-PMS). The test is classed as cell-based. How it is done: HPRLG129R Conditioned Media. The assay conditions were modified from that described by Ginsburg and Vonderharr (1995, Cancer Res. 55:2591–2595). T47-D cells were trypsinized and passed into 96 well plates in RPMI-1640 media containing 1% DCC-FCS in a volume of 100 μl/well. The optimal cell number/well for each cell line was pre-determined after titration assay. For T47-D cells, 15,000 cells/well were plated. The cells were allowed to settle and adhere overnight (12–18 hours) and subsequently various concentrations of either hPRL, hRPL-G129R, E2 or 4-OH-Tamoxifen in a total volume of 100 μl of culture media were added. Purified hPRL (kindly provided by Dr. Parlow, National Hormone & Pituitary Program, NIH) was used as a positive control for hPRL produced from stable L cells. Cells were incubated for an additional 96 hours at 37° C. in a humidified 5% CO2 incubator. After incubation, MTS-PMS solution (Cell Titer 96 Aqueous kit, Promega Corp.) was added to each well, following the manufacturer's instructions. Plates were read at 490 nm using a BIO-RAD benchmark microplate reader. The experiments were carried out in triplicates and repeated three to six times for each cell line.

The subject of test [3] is T-47D human breast cancer cells. As to the kind of experiment: TUNEL assay, T-47D. The test is classed as cell-based. Here is the method:
Cell Culture. T-47D cells obtained from ATCC were grown in RPMI 1640 (phenol red free), supplemented with 10% FBS (GIBCO BRL). BT-474 cells were grown in RPMI 1640 medium (phenol red free) supplemented with 10% FBS and ATCC recommended supplements. MCF-7 cells were grown in DMEM medium (phenol red free), supplemented with 10% FBS. The cells were grown at 37° C. in a humid atmosphere in the presence of 5% CO2. The MDA-MB-134 cells were grown in Leibovitz's L-15 medium supplemented with 20% FBS and grown in CO2 free atmosphere. The breast cancer cells were trypsinized (0.02% Trypsin—EDTA) and grown in their respective media (phenol red free) supplemented with 10% CSS (Charcoal stripped serum) for a week. Subsequently the cells were trypsinized again and plated onto an 8 chambered slide system (Lab Tek II) at a confluence of 60–70% per chamber. The next day treatments were performed on the breast cancer cells using their respective media(phenol red free), supplemented with 1% CSS. The MDA-MB-134 VI cells were grown in phenol red containing medium, but with the same serum conditions as the other breast cancer cells.
Terminal deoxynucleotidly transferase mediated dUTP nick end labeling (TUNEL) assay. Nicks of the fragmented DNA are labeled at their 3-OH ends. The fluorescein-labeled dUTP is incorporated at the 3-OH ends by using the enzyme terminal deoxynucleotidyl transferase. After the assigned period of treatment the chambers were dismantled as per the manufacturer's instructions and the TUNEL assay (Apoptosis detection system, Fluorescein- Promega) was performed as per the manufacturer's instructions. The slide was examined under a FITC filter using an Olympus IX 70 microscope system.

For test [4], the system named is T47-D human breast cancer cells. The test is described as follows: Light microscopic examination of T47-D cells. The following applies: single dose 200 ng/ml, 4-day incubation. The test is classed as cell-based. How it is done: FIGS. 14A–E. Light microscopic examination of T47-D human breast cancer cells after single dose of 200 ng/ml hPRL (15B); 200 ng/ml of HPRL-G129R (15C); 200 nM of E2 (15D); or 200 nM of 4-OH-Tamoxifen (15E) treatment after 4-day incubation as compared to control (15A).×200.
Human Breast Cancer Cell Proliferation Assays. Human PRL and hPRL-G129R were tested further for their ability to stimulate/inhibit breast cancer cell proliferation in cell culture. Light microscopic examination of breast cancer cell proliferation after hPRL, hPRL-G129R, E2 and 4-OH-Tamoxifen is shown in FIGS. 14A–E. It is clear that there is a significant difference in cell density between hPRL (15B), hPRL-G129R(15C) and E2 (15D), 4-OH-Tamoxifen (15E) treated cells.

Test [5] has as its system rat Nb2 T lymphoma cells. The following applies: Goffin et al., 1994; cited from earlier work.

B1: hPRL-G129R: variant of human prolactin having a substitution of the glycine at position 129 with an arginine residue; prolactin receptor antagonist (protein)
chain: LPICPGGAARCQVTLRDLFDRAVVLSHYIHNLSSEMFSEFDKRYTHGRGFITKAINSCHTSSLATPEDKEQAQQMNQKDFLSLIVSILRSWNEPLYHLVTEVRGMQEAPEAILSKAVEIEEQTKRLLERMELIVSQVHPETKENEIYPVWSGLPSLQMADEESRLSAYYNLLHCLRRDSHKIDNYLKLLKCRIIHNNNC
Regarding B1, the “proliferation of T47D cells relative to untreated control cultures” value in test [1] is given as “comparable inhibitory effect”. The “inhibitory effect of combination” value in test [2] (100 nM 4-OH-Tamoxifen in the presence of 100 ng/ml hPRL-G129R) is “approximately 32 % of control”. The entries for the “effect on hPRL induced cell proliferation” value in test [2] (1:1 molar ratio hPRL-G129R:hPRL) and in test [2] (2:1 molar ratio hPRL-G129R:hPRL) were “stop the stimulatory effect of hPRL” and “inhibited cell proliferation”, respectively. The “maximum inhibition by a single dose” value in test [2] (4-OH-Tamoxifen at 500 nM, T47-D) was 25 % of control. The “inhibitory potency compared with maximal 500 nM dose of 4-OH-Tamoxifen” value in test [2] (hPRL-G129R 150 ng/ml) is reported as “more potent”. Further, the “inhibitory effects of combination compared to maximum dose of either agent” value in test [2] (hPRL-G129R applied together with 4-OH-Tamoxifen) is on record as “doubled”. Further, the “effect on T47-D proliferation, dose response” value in test [2] (single dose, four-day incubation) was “dose dependent inhibitory effects”. In test [3] (50 ng/ml, 2 hours), the “DNA fragmentation after 2 hours of treatment” value was “apparent”. In addition, in test [3] (50 ng/ml, 24 h), the “apoptosis at physiological concentration” value is reported as “apoptosis occurs”. The “induction of apoptosis DNA fragmentation” value in test [3] (250 ng G129R, 24 hours) was “induced apoptosis”. Further, the “competition between G129R and hPRL on DNA fragmentation” value in test [3] (1:1 ratio (125 ng/ml each)) is on record as “able to compete with hPRL”. In addition, the “apoptosis (DNA fragmentation), dose response” value in test [3] (24 h treatment) is on record as “induced apoptosis in a dose dependent manner”. Also, the “overall cell condition under light microscopy” value in test [4] is listed as “not as healthy”. For the same molecule, in test [5], the “activity in Nb2 proliferation assay” value is listed as “weak agonist”.
